Data set [1] has as its target 46w60 nucleosome (recombinant human histone octamer on Widom 601 DNA with 46-bp and 60-bp flanks), Cy5-labelled (human) (UniProt P0C0S8). Description: MST; CHD4 titrated (1:2 serial dilution) into 25 nM Cy5-labelled 46w60 nucleosome; 50 mM HEPES pH 7.5, 50 mM NaCl, 3 mM MgCl2 dilution buffer, 100 ng/µL BSA, 0.5% glycerol; 10 min on ice; Monolith NT.115, 80% LED, 20% MST power; fit to a 1:1 binding isotherm.

Data set [2] concerns CHD4 C1bC2a (SANT-SLIDE) (Homo sapiens). Nature of the data set: MST. Particulars: 120 mM NaCl, 1 mM TCEP, no Mg2+; CHD4: 50 mM HEPES pH 7.5, NaCl up to 50 mM and MgCl2 up to 3 mM (from dilution buffer), 100 ng/uL BSA, 0.5% glycerol, 25 nM Cy5 substrate; C1bC2a: 20 mM HEPES ….
The test system of a further data set is CHD4 WT (Homo sapiens). Nature of the data set: MST. Particulars: 3 mM Mg2+ in dilution buffer; CHD4: 50 mM HEPES pH 7.5, NaCl up to 50 mM and MgCl2 up to 3 mM (from dilution buffer), 100 ng/uL BSA, 0.5% glycerol, 25 nM Cy5 substrate; C1bC2a: 20 mM HEPES ….
Data set [3] concerns CHD4(1-1230) (Homo sapiens). Nature of the data set: MST. The note with it: CHD4: 50 mM HEPES pH 7.5, NaCl up to 50 mM and MgCl2 up to 3 mM (from dilution buffer), 100 ng/uL BSA, 0.5% glycerol, 25 nM Cy5 substrate; C1bC2a: 20 mM HEPES ….
In data set [4] the test system is CHD4(1-1380) (Homo sapiens). Description: MST. The note with it: CHD4: 50 mM HEPES pH 7.5, NaCl up to 50 mM and MgCl2 up to 3 mM (from dilution buffer), 100 ng/uL BSA, 0.5% glycerol, 25 nM Cy5 substrate; C1bC2a: 20 mM HEPES ….
In data set [5] the test system is CHD4(1-1810) (Homo sapiens). Description: MST. Particulars: CHD4: 50 mM HEPES pH 7.5, NaCl up to 50 mM and MgCl2 up to 3 mM (from dilution buffer), 100 ng/uL BSA, 0.5% glycerol, 25 nM Cy5 substrate; C1bC2a: 20 mM HEPES ….
Data set [6] deals with CHD4-IDR2-del- (Homo sapiens). Description: MST. The note with it: 3 mM Mg2+ in dilution buffer; CHD4: 50 mM HEPES pH 7.5, NaCl up to 50 mM and MgCl2 up to 3 mM (from dilution buffer), 100 ng/uL BSA, 0.5% glycerol, 25 nM Cy5 substrate; C1bC2a: 20 mM HEPES ….
In data set [7] the test system is CHD4-IDR2-scram (Homo sapiens). Description: MST. The note with it: 3 mM Mg2+ in dilution buffer; CHD4: 50 mM HEPES pH 7.5, NaCl up to 50 mM and MgCl2 up to 3 mM (from dilution buffer), 100 ng/uL BSA, 0.5% glycerol, 25 nM Cy5 substrate; C1bC2a: 20 mM HEPES ….

Sequence of CHD4(1–1230) (Q14839 1-1230): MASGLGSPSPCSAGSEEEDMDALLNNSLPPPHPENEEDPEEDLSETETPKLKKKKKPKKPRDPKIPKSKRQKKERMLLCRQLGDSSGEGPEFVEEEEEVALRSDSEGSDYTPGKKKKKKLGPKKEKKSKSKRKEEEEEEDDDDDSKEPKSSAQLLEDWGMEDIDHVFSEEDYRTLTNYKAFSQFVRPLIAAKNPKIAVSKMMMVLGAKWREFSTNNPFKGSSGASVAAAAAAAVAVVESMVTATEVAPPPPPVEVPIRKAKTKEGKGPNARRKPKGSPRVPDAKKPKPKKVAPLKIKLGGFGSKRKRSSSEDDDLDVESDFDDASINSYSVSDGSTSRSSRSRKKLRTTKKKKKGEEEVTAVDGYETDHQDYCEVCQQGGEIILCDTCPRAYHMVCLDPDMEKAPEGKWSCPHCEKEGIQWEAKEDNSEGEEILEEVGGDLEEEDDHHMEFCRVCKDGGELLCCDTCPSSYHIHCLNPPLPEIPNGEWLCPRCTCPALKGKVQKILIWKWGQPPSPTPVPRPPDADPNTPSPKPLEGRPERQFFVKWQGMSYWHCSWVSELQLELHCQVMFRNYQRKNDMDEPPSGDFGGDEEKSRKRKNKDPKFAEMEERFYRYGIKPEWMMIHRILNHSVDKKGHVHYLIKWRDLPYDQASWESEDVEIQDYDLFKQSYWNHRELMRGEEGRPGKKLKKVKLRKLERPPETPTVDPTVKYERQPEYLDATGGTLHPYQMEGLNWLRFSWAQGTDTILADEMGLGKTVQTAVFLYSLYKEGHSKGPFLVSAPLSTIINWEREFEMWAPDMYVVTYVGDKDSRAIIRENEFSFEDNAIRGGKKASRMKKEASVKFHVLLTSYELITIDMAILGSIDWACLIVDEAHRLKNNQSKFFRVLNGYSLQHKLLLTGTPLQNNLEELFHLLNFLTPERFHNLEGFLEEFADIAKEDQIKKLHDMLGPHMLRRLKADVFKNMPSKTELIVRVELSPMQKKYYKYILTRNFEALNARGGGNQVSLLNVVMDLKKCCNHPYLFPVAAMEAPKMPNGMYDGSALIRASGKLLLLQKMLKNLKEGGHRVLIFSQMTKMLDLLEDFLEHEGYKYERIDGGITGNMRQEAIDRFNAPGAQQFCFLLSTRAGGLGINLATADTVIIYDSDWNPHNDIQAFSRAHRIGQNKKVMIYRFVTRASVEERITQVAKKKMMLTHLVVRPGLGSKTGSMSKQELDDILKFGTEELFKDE
Sequence of CHD4(1–1540) (Q14839 1-1540): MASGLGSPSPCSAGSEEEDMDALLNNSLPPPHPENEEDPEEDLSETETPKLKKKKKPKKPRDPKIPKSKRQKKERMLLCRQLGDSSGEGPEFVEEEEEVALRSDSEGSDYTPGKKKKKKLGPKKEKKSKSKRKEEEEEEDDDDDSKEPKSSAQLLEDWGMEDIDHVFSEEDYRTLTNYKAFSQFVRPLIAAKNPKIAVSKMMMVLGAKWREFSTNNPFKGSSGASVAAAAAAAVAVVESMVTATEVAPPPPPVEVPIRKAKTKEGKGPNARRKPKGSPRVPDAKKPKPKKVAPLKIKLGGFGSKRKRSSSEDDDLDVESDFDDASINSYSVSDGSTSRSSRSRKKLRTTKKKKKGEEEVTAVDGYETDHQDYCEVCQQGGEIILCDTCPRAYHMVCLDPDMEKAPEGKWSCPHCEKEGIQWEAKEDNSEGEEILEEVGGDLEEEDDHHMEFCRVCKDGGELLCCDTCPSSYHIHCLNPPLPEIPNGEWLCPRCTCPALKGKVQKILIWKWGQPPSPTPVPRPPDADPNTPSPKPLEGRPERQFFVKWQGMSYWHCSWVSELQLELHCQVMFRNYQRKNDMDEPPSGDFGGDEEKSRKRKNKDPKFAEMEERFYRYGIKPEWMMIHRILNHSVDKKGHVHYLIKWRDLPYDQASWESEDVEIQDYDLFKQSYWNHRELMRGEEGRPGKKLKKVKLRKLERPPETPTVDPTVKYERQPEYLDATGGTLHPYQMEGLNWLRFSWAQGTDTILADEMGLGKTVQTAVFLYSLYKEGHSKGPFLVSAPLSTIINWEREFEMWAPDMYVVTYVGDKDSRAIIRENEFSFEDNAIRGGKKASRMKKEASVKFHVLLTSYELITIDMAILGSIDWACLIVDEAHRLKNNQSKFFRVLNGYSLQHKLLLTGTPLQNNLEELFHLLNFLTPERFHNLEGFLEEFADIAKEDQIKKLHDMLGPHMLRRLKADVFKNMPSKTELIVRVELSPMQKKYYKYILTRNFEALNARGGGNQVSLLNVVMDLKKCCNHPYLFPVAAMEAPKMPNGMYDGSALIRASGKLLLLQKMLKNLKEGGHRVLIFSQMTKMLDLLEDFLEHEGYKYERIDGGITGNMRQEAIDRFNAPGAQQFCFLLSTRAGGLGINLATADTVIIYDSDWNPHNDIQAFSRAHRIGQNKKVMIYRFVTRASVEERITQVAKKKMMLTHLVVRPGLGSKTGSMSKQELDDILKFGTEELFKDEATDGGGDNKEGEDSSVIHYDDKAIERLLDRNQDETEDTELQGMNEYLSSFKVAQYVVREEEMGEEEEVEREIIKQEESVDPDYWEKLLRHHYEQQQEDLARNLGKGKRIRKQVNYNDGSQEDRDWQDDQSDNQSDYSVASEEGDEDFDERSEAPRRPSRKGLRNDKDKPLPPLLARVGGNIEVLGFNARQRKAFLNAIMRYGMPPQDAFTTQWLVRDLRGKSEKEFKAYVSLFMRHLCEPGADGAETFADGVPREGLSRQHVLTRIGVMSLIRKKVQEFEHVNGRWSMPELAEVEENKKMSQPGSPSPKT
Sequence of WT CHD4 (human chromodomain helicase DNA-binding protein 4, full length) (Q14839 whole entry): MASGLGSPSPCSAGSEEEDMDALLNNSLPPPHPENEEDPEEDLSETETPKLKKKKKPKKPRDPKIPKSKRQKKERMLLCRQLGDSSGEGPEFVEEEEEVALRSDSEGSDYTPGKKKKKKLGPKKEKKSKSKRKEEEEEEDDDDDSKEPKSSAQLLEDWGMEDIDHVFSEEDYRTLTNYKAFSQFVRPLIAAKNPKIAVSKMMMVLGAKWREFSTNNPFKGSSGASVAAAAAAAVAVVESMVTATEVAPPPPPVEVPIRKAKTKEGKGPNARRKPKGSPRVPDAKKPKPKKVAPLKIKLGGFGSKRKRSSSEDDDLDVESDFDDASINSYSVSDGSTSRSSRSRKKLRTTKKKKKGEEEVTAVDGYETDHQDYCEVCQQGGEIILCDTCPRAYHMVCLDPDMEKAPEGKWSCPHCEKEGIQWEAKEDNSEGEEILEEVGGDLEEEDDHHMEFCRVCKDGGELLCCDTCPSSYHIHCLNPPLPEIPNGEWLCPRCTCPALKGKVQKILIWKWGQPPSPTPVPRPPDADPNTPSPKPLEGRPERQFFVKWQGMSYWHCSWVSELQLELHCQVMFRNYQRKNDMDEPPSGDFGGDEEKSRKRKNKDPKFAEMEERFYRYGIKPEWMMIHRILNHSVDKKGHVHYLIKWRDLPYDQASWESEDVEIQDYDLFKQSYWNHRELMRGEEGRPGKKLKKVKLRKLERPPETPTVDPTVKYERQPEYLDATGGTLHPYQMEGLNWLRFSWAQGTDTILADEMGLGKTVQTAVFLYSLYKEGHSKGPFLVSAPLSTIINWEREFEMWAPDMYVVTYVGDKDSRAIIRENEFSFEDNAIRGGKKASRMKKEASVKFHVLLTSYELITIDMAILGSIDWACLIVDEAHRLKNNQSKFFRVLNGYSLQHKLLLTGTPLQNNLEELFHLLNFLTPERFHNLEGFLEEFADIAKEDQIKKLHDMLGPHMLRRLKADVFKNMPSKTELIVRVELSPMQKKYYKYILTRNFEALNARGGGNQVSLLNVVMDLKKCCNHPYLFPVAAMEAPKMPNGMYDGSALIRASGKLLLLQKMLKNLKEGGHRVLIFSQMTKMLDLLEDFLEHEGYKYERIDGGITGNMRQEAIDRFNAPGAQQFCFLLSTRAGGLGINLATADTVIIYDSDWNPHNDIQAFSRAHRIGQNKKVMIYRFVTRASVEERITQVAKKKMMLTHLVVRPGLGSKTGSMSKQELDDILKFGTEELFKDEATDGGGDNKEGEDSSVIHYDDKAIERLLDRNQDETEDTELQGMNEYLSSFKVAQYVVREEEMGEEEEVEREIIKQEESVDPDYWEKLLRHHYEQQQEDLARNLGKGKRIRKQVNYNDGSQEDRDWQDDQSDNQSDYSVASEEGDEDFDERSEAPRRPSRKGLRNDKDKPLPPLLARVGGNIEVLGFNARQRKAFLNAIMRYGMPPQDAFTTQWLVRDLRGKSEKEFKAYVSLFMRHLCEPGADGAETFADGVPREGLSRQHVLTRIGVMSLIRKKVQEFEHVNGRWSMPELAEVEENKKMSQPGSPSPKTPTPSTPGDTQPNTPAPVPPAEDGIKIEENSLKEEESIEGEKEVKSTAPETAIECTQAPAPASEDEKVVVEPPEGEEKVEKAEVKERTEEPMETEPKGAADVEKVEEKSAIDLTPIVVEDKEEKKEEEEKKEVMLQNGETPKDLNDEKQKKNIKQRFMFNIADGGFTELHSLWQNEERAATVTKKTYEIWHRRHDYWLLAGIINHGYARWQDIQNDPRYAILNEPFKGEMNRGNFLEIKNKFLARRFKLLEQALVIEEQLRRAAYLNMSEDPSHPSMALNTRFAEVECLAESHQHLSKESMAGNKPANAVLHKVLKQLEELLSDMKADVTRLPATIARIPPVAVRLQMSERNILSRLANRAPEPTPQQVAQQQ
Sequence of CHD4-IDR2-del+ (Q14839 whole entry, one chain of several): as the sequence (Q14839 whole entry) above
Sequence of CHD4-IDR2-del– (Q14839 whole entry, one chain of several): as the sequence (Q14839 whole entry) above

Turning to “CHD4(1–1810) (from UniProt Q14839 1-1810) (domain or fragment)”, the fold decrease in affinity against WT CHD4 in data set [1] turned out to be 3 fold. By Kd is commonly meant the free concentration of one partner at which half of the binding sites on the other are occupied at equilibrium, for simple one-to-one binding. As to “WT CHD4 (human chromodomain helicase DNA-binding protein 4, full length) (from UniProt Q14839 1-1912) (enzyme)”, the Kd in data set [1] amounted to 45 nM.

For the substance “CHD4-IDR2-del– (from UniProt Q14839 1-226; Q14839 363-1912) (enzyme)”, in data set [1], the Kd worked out at 20 nM.

Consider “CHD4(1–1540) (from UniProt Q14839 1-1540) (domain or fragment)”, for which the fold decrease in nucleosome binding against WT CHD4 in data set [1] was 4 fold.

As to “CHD4(1–1380) (from UniProt Q14839 1-1380) (domain or fragment)”, in data set [1], the fold decrease in substrate binding against WT CHD4 is 10 fold. As for “CHD4(355–1912) (from UniProt Q14839 355-1912) (domain or fragment)”, the fold decrease in substrate binding affinity against WT CHD4 in data set [1] worked out at 3 fold.

For 46w60 DNA (naked), the Kd in data set [2] worked out at 10000 nM; in the data set on CHD4 WT (Homo sapiens), 350 nM. For 46w60 nucleosome, the Kd in the data set with CHD4 WT (Homo sapiens) worked out at 45 nM; in data set [3], 210 nM; in data set [4], 430 nM; in data set [5], 150 nM; in data set [6], 20 nM; in data set [7], 100 nM. As to “CHD4(1–1230) (from UniProt Q14839 1-1230) (domain or fragment)”, in data set [1], the fold decrease in affinity against WT CHD4 was 5 fold and the fold increase in binding against CHD4(1–1380) was determined as 2 fold. As for “CHD4-IDR2-del+ (from UniProt Q14839 1-226; Q14839 363-1912) (enzyme)”, the fold decrease in affinity against WT CHD4 in data set [1] is 5 fold.
